From US20200148778A1
Like-named read-outs stand apart in the source and are kept apart here.

Columns and labels:
[1] = target: Fc-tagged human CD40 (h-CD40-Fc) recombinant protein (human) (UniProt P25942); test: hCD40/hCD40L blocking ELISA, CD40L as competitor
[2] = target: human CD40 on HEK293 cells stably transfected with the human CD40 gene (HEK-Blue CD40L cells) (human) (UniProt P25942); test: HEK293-CD40 cells binding; method not described
[3] = target: Fc-tagged human CD40 (h-CD40-Fc) recombinant protein (human) (UniProt P25942); test: hCD40/hCD40L blocking ELISA, CD40L as competitor; remark: listed apart in the source
[4] = target: His-tagged rhesus CD40 (rhesus-CD40-his) recombinant protein (rhesus) (UniProt F6SNI1); test: ELISA, rhesus CD40-his coated
His-tagged rhesus CD40 (rhesus-CD40-his) recombinant protein (rhesus), sequence (F6SNI1 entry or part of it): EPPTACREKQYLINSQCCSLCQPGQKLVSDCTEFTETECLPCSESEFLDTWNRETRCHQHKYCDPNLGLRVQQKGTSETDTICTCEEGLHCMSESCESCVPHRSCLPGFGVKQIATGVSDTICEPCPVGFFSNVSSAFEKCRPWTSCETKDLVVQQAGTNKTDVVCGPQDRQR

[5] = target: His-tagged human CD40 (h-CD40-his) recombinant protein (human) (UniProt P25942); test: ELISA, human CD40-his coated
His-tagged human CD40 (h-CD40-his) recombinant protein (human), sequence (P25942 21-193 limits assumed): as the sequence (F6SNI1 entry or part of it) above, with S43G, R56H, L89W, M92T, S95A, P101L, L106S, R142H, Q172L counted along it

[6] = target: human CD40 on HEK293 cells stably transfected with the human CD40 gene (HEK-Blue CD40L cells) (human) (UniProt P25942); test: HEK293-CD40 cells binding; method not described; remark: listed apart in the source
[7] = target: His-tagged human CD40 (h-CD40-his) recombinant protein (human) (UniProt P25942); test: ELISA, human CD40-his coated; remark: listed apart in the source
[8] = target: His-tagged human CD40 (h-CD40-his) recombinant protein (human) (UniProt P25942); test: Biacore X100, antibody captured by anti-human antibody on CM5 chip, CD40 antigen as analyte, 1:1 model
[9] = target: His-tagged human CD40 (h-CD40-his) recombinant protein (human) (UniProt P25942); test: as above; remark: listed apart in the source

human CD40 on HEK293 cells stably transfected with the human CD40 gene (HEK-Blue CD40L cells) (human), sequence (P25942 21-277): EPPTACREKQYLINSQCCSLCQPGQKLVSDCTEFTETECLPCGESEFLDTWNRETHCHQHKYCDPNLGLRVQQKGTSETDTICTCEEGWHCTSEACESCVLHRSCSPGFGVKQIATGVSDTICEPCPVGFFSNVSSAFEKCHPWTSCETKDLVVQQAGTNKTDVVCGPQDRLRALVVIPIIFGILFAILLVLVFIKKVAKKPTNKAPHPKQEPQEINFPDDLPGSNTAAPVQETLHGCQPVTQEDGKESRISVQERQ
Fc-tagged human CD40 (h-CD40-Fc) recombinant protein (human), sequence (P25942 21-193 limits assumed): as the sequence (F6SNI1 entry or part of it) above, with S43G, R56H, L89W, M92T, S95A, P101L, L106S, R142H, Q172L counted along it

IC50 [1]: 0.723 µg/mL
EC50 [2]: 0.397 µg/mL
IC50 [3]: 0.647 µg/mL
EC50 [4]: 0.00124 µg/mL
EC50 [5]: 0.00129 µg/mL
EC50 [6]: 1.36 µg/mL
EC50 [7]: 0.00329 µg/mL
Kd [8]: 166 nM
Kd [9]: 65.9 nM
B1: Alligator reference (hIgG1) (antibody, INN chains, looked up, V domains shown)
VH: EVQLLESGGGLVQPGGSLRLSCAASGFTFSTYGMHWVRQAPGKGLEWLSYISGGSSYIFYADSVRGRFTISRDNSENALYLQMNSLRAEDTAVYYCARILRGGSGMDLWGQGTLVTVSS
VL: QSVLTQPPSASGTPGQRVTISCTGSSSNIGAGYNVYWYQQLPGTAPKLLIYGNINRPSGVPDRFSGSKSGTSASLAISGLRSEDEADYYCAAWDKSISGLVFGGGTKLTVL
